{"source": "paper PMC8038991", "about": "“R-catcher, a potent molecular tool to unveil the arginylome” (Cellular and Molecular Life Sciences: CMLS, 2021)", "molecules": {"B1": {"name": "R-CRT: Nt-arginylated CRT (protein)", "chain": "REPAVYFKEQFLDGDGWTSRWIESKHKSDFGKFVLSSGKFYGDEEKDKGLQTSQDARFYALSASFEPFSNKGQTLVVQFTVKHEQNIDCGGGYVKLFPNSLDQTDMHGDSEYNIMFGPDICGPGTKKVHVIFNYKGKNVLINKDIRCKDDEFTHLYTLIVRPDNTYEVKIDNSQVESGSLEDDWDFLPPKKIKDPDASKPEDWDERAKIDDPTDSKPEDWDKPEHIPDPDAKKPEDWDEEMDGEWEPPVIQNPEYKGEWKPRQIDNPDYKGTWIHPEIDNPEYSPDPSIYAYDNFGVLGLDLWQVKSGTIFDNFLITNDEAYAEEFGNETWGVTKAAEKQMKDKQDEEQRLKEEEEDKKRKEEEEAEDKEDDEDKDEDEEDEEDKEEDEEEDVPGQAKDEL"}, "B2": {"name": "CRT: ER chaperone calreticulin, arginylated (protein)", "chain": "B1 chain"}}, "key": {"GST-ZZ122-175^N132D": {"tested_on": "GST-ZZ122-175^N132D", "assay": "GST-ZZ122-175^N132D pulldown from HeLa lysates (MG132 plus TG)", "assay_type": "binding, human", "details": "HeLa lysate, immunoblot", "text": "Using these lysates and purified GST tagged ZZ122-175^N132D (Supplementary Fig. 4A) immobilized on glutathione resin, we performed pulldown assays. […] In addition to pulling down R-BiP and R-CRT, GST-ZZ122-175^N132D was able to capture polyubiquitinated proteins, which were also disrupted by the D129A mutation and RA dipeptide competition (Supplementary Fig. 4B). This was expected because arginylated proteins are known to be ubiquitinated by E3 ligases containing a UBR box leading to their proteasomal degradation.\nFig. 4 ZZ122-175 ^N132D is capable of capturing known arginylated proteins in cells. a Western blot analysis to visualize arginylated BiP and CRT. […] N-terminally arginylated BiP and CRT were detected by immunoblotting using anti R-BiP and R-CRT antibodies. b GST pulldown assays to test the ability of wild type (WT) and N132D GST-ZZ in capturing cellular R-BiP and R-CRT. […] Pulled down R-BiP and R-CRT were detected using anti R-BiP and R-CRT antibodies. c Schematic drawing illustrating R-catcher. […] R-catcher bound arginylated proteins were detected by immunoblotting using anti-Myc or Flag antibody. e R-catcher pulldown assay to capture R-BiP and R-CRT induced in HeLa cells stimulated with MG132 plus TG in the absence or presence of 20 mM dipeptides TEXT PRINTED IN THE PICTURE: (C) R-catcher: ~ 9 kDa"}, "R-catcher": {"tested_on": "R-catcher", "assay": "Small-scale R-catcher pulldown of known arginylated proteins", "assay_type": "binding, human", "details": "HeLa, MG132 plus TG, Fig. 4e", "procedure": "For small-scale R-catcher pull-down assays, 300 µg of purified R-catcher was conjugated with 120 µl of Strep-Tactin sepharose resin by incubating overnight at 4 °C. To test R-catcher’s ability to capture known arginylated proteins, such as R-BiP, R-PDI, R-nsP4 and R-RGS4, plasmids encoding Ub-X-(BiP, PDI and nsP4) or MX-RGS4 (X = Arg or Val) were transiently transfected into HEK293 cells. After 24 h, cells were treated with 10 µM MG132 and 100 nM thapsigargin for another 24 h. Cells were harvested and lysed in hypotonic buffer and 300 µg total protein was incubate with 25 µl R-catcher-sepharose resin in binding buffer (20 mM HEPES pH 7.9, 0.05% Tween 20, 10% glycerol, 0.2 M KCl, protease inhibitor and phosphatase inhibitor) for 3 h with gentle rotation at 4 °C. After three washes with binding buffer, bound proteins were dissociated with 2 × SDS sample buffer and boiling at 100 °C and subjected to immunoblotting using anti-myc or flag antibodies."}, "[1]": {"tested_on": "HeLa cell extracts stimulated with MG132 plus TG", "assay": "Large-scale R-catcher pulldown coupled to silver staining and LC-MS/MS", "set-up": "species or system human", "details": "LC-MS/MS working list", "procedure": "For large-scale R-catcher pulldown assays, HeLa cells were treated with 5 µM MG132 and 100 nM thapsigargin for 24 h. Cells were lysed in hypotonic buffer and 10 mg total was incubated with 750 µl R-catcher-sepharose beads for 3 h at 4 °C after pre-clearing with D129A mutant R-catcher-sepharose beads for 3 h at 4 °C. After three washes with binding buffer, bound proteins were eluted with binding buffer containing 20 mM D-biotin. To remove R-catcher, the eluent was dialyzed using 20 kDa cut-off dialysis membrane in binding buffer containing 3.5 M MgCl2 overnight followed by another overnight dialysis in distilled-deionized water. The dialyzed eluent was lyophilized overnight and dried powder was dissolved in 100 µl LC/MS solubilizer for silver staining and mass spectrometry analysis.\nProtein samples solubilized in Invitrosol LC/MS solubilizer (Invitrogen) as following by manufacturer protocol. For removal of incompatible buffer components, protein samples filtrate with 10 K MW ultrafilter for complete digestion. […]\nPeptides were analyzed using a LC–MS/MS system consisting of an Easy nLC 1000 (Thermo Fisher scientific) and an Orbitrap Fusion Lumos mass spectrometer (Thermo Fisher Scientific) equipped with a nano-electrospray source (EASY-Spray Sources, Thermo Fisher Scientific). […]\nMS/MS spectra were analyzed using the following software analysis protocols with the Uniprot human DB (2019). […]"}}}
{"molecule": "B1", "values": [{"measurement": "pulldown by GST-ZZ122-175^N132D", "setting": "GST-ZZ122-175^N132D", "value": "efficiently pull down"}]}
{"molecule": "B2", "values": [{"measurement": "pulldown by R-catcher, endogenous", "setting": "R-catcher", "value": "could pulldown"}, {"measurement": "presence in R-catcher working list", "setting": "[1]", "value": "among the known arginylated proteins"}]}
